Experimental data published in patent JP2016135753A.

Target: SLA-1*0401/β2M (HEK293トランスフェクタント細胞表面) (pig) (UniProt Q07717)
Experiment: flow cytometry of hybridoma supernatant on SLA-1*0401/β2M HEK293 transfectants

B1: モノクローナル抗体X2F6 (antibody, mouse IgG2a, kappa, V domains shown)
VH: QVQLQQSGAELVKPGASVKLSCKASGYTFTSYDINWVRQRPEQGLEWIGWIYPGDGSTKYNEKFKGKATLTTDKSSSTAYMQLSRLTSEDSAVYFCASPYYYGSSPFAYWGQGTLVTVSA
VL: DIQMTQSPASLSASVGETVTITCRASENIYSYLAWYQQKQGKSPQLLVYNAKTLAEGVPSRFSGSGSGTQFSLKINSLQPEDFGSYYCQHHYGTPRTFGGGTKLEIKR
For B1, which 平均蛍光強度(MFI) is on record?
The 平均蛍光強度(MFI) was 3000.
